The assay has as its target recombinant human α-synuclein protein seeds (human) (UniProt P37840).

Drawing on paper PMC11763338, this text covers percent inhibition of aggregation of α-syn monomer seeded by m2, cell-free ThT fluorescence and percent inhibition of intracellular α-syn aggregation in rat cortical neurons exposed to seeds (0.14 μM), HTRF aggregate assay for 1 substance.

As to R18D (18-mer of D-arginine) (peptide), the percent inhibition of aggregation of α-syn monomer seeded by m2, cell-free ThT fluorescence at 24 h; R18D 0.05-0.25 μM pre-incubated with the seeds turned out to be 62.1% and the percent inhibition of intracellular α-syn aggregation in rat cortical neurons exposed to seeds (0.14 μM), HTRF aggregate assay at 48 h; R18D 0.0625-0.5 μM added 2 h after the seeds came out at 37.8%.
